The values below come from paper PMC7865074, “Role of PDZ-binding motif from West Nile virus NS5 protein on viral replication” (Scientific Reports, 2021).

Ends that are not written are not given here. Bounds are passed on as bounds.

This assay addresses T1, biotinylated WNV NS5 PBM peptide (West Nile virus, also: biotinyl group, end not given here).
T1 construct: bait of the holdup assay; also called 13-mer peptide; source: synthetic peptide (solid phase, Fmoc; Proteogenix)
T1 peptide: RYEDTTLVEDTVL
The experiment in a line: holdup assay (automated high-throughput chromatography); biotinylated NS5 PBM peptide as bait against 259 human PDZ domains expressed in E. coli; read-out binding intensity (BI), mean of replicates; BI threshold 0.2 for a significant interaction.

B1: SH3 and multiple ankyrin repeat domains protein 1, PDZ domain (holdup construct) (domain or fragment, human, UniProt Q9Y566 663-757, looked up)
chain: TVLLQKKDSEGFGFVLRGAKAQTPIEEFTPTPAFPALQYLESVDEGGVAWRAGLRMGDFLIEVNGQNVVKVGHRQVVNMIRQGGNTLMVKVVMVT
notes: also called SHANK1; source: E. coli, PDZome V.2 library, high-throughput expression
Turning to B1, the “BI (holdup binding intensity)” value was 0.39.

B2: Zona Occludens 3; Tight Junction Protein 3, PDZ domain 2 (holdup construct) (domain or fragment, human, UniProt O95049 195-272, looked up)
chain: SVLVKRRDSEEFGVKLGSQIFIKHITDSGLAARHRGLQEGDLILQINGVSSQNLSLNDTRRLIEKSEGKLSLLVLRDR
notes: also called TJP3_2; source: E. coli, PDZome V.2 library, high-throughput expression
Regarding B2, the “BI (holdup binding intensity)” value is 0.23.

B3: Protein scribble homolog, PDZ domain 1 (holdup construct) (domain or fragment)
chain: not shown
notes: also called SCRIB_1; source: E. coli, PDZome V.2 library, high-throughput expression
For B3, the “BI (holdup binding intensity)” value worked out at 0.27.

B4: Rho GTPase-activating protein 21, PDZ domain (holdup construct) (domain or fragment, human, UniProt Q5T5U3 50-159, looked up)
chain: TVTLKRTSQGFGFTLRHFIVYPPESAIQFSYKDEENGNRGGKQRNRLEPMDTIFVKQVKEGGPAFEAGLCTGDRIIKVNGESVIGKTYSQVIALIQNSDTTLELSVMPKD
notes: also called ARHGAP21; source: E. coli, PDZome V.2 library, high-throughput expression
Regarding B4, the “BI (holdup binding intensity)” value was determined as 0.3.

B5: PDZ and LIM domain protein 1, PDZ domain (holdup construct) (domain or fragment, human, UniProt O00151 3-85, looked up)
chain: TQQIDLQGPGPWGFRLVGGKDFEQPLAISRVTPGSKAALANLCIGDVITAIDGENTSNMTHLEAQNRIKGCTDNLTLTVARSE
notes: also called PDLIM1; source: E. coli, PDZome V.2 library, high-throughput expression
On to B5, for which the “BI (holdup binding intensity)” value is less than 0.15.

B6: Protein piccolo, PDZ domain (holdup construct) (domain or fragment, human, UniProt Q9Y6V0 4496-4590, looked up)
chain: RIKITRDSKDHTVSGNGLGIRIVGGKEIPGHSGEIGAYIAKILPGGSAEQTGKLMEGMQVLEWNGIPLTSKTYEEVQSIISQQSGEAEICVRLDL
notes: also called PCLO; source: E. coli, PDZome V.2 library, high-throughput expression
Take B6: the “BI (holdup binding intensity)” value is less than 0.15.

B7: Na(+)/H(+) exchange regulatory cofactor NHE-RF2, PDZ domain 1 (holdup construct) (domain or fragment, human, UniProt Q15599 11-90, looked up)
chain: LCRLVRGEQGYGFHLHGEKGRRGQFIRRVEPGSPAEAAALRAGDRLVEVNGVNVEGETHHQVVQRIKAVEGQTRLLVVDQ
notes: also called NHERF2_1; source: E. coli, PDZome V.2 library, high-throughput expression
B7: the “BI (holdup binding intensity)” value came to 0.21.

B8: SH3 and multiple ankyrin repeat domains protein 3, PDZ domain (holdup construct) (domain or fragment, human, UniProt Q9BYB0 646-740, looked up)
chain: VAVLQKRDHEGFGFVLRGAKAETPIEEFTPTPAFPALQYLESVDVEGVAWRAGLRTGDFLIEVNGVNVVKVGHKQVVALIRQGGNRLVMKVVSVT
notes: also called SHANK3; source: E. coli, PDZome V.2 library, high-throughput expression
Turning to B8, the “BI (holdup binding intensity)” value worked out at 0.39.

B9: T-lymphoma invasion and metastasis-inducing protein 2, PDZ domain (holdup construct) (domain or fragment, human, UniProt Q8IVF5 890-976, looked up)
chain: DVQLTKTGSVCDFGFAVTAQVDERQHLSRIFISDVLPDGLAYGEGLRKGNEIMTLNGEAVSDLDLKQMEALFSEKSVGLTLIARPPD
notes: also called TIAM2; source: E. coli, PDZome V.2 library, high-throughput expression
Take B9: the “BI (holdup binding intensity)” value is less than 0.15.

B10: PDZ domain-containing protein 7, PDZ domain 3 (holdup construct) (domain or fragment, human, UniProt Q9H5P4 862-934, looked up)
chain: TVTLSKMKQSLGISISGGIESKVQPMVKIEKIFPGGAAFLSGALQAGFELVAVDGENLEQVTHQRAVDTIRRA
notes: also called PDZD7_3; source: E. coli, PDZome V.2 library, high-throughput expression
Regarding B10, the “BI (holdup binding intensity)” value worked out at 0.27.

B11: Membrane-associated guanylate kinase, WW and PDZ domain-containing protein 3, PDZ domain 2 (holdup construct) (domain or fragment, human, UniProt Q5TCQ9 410-492, looked up)
chain: RASLKKSTMGFGFTIIGGDRPDEFLQVKNVLKDGPAAQDGKIAPGDVIVDINGNCVLGHTHADVVQMFQLVPVNQYVNLTLCR
notes: also called MAGI3 _2; source: E. coli, PDZome V.2 library, high-throughput expression
In the case of B11, the “BI (holdup binding intensity)” value turned out to be 0.61.

B12: Partitioning defective 3 homolog, PDZ domain 3 (holdup construct) (domain or fragment, human, UniProt Q8TEW0 590-677, looked up)
chain: EVPLNDSGSAGLGVSVKGNRSKENHADLGIFVKSIINGGAASKDGRLRVNDQLIAVNGESLLGKTNQDAMETLRRSMSTEGNKRGMIQ
notes: also called PARD3_3; source: E. coli, PDZome V.2 library, high-throughput expression
For B12, the “BI (holdup binding intensity)” value was determined as 0.29.

B13: Protein scribble homolog, PDZ domain 3 (holdup construct) (domain or fragment, human, UniProt Q14160 1004-1093, looked up)
chain: EIRLPRAGGPLGLSIVGGSDHSSHPFGVQEPGVFISKVLPRGLAARSGLRVGDRILAVNGQDVRDATHQEAVSALLRPCLELSLLVRRDP
notes: also called SCRIB_3; source: E. coli, PDZome V.2 library, high-throughput expression
Turning to B13, the “BI (holdup binding intensity)” value stood at 0.33.

B14: PDZ domain-containing RING finger protein 3, PDZ domain 1 (holdup construct) (domain or fragment, human, UniProt Q9UPQ7 249-339, looked up)
chain: TLVLHRDSGSLGFNIIGGRPSVDNHDGSSSEGIFVSKIVDSGPAAKEGGLQIHDRIIEVNGRDLSRATHDQAVEAFKTAKEPIVVQVLRRT
notes: also called PDZRN3_1; source: E. coli, PDZome V.2 library, high-throughput expression
For the molecule B14, the “BI (holdup binding intensity)” value came out at 0.35.

B15: Disks large homolog 4, PDZ domain 3 (holdup construct) (domain or fragment, human, UniProt P78352 313-393, looked up)
chain: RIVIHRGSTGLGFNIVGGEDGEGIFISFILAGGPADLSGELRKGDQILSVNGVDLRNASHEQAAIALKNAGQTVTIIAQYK
notes: also called DLG4_3; source: E. coli, PDZome V.2 library, high-throughput expression
B15: the “BI (holdup binding intensity)” value came to 0.24.

B16: Microtubule-associated serine/threonine-protein kinase 2, PDZ domain (holdup construct) (domain or fragment, human, UniProt Q6P0Q8 1104-1192, looked up)
chain: PIIIHRAGKKYGFTLRAIRVYMGDSDVYTVHHMVWHVEDGGPASEAGLRQGDLITHVNGEPVHGLVHTEVVELILKSGNKVAISTTPLE
notes: also called MAST2; source: E. coli, PDZome V.2 library, high-throughput expression
Take B16: the “BI (holdup binding intensity)” value stood at 0.72.

B17: Na(+)/H(+) exchange regulatory cofactor NHE-RF2, PDZ domain 2 (holdup construct) (domain or fragment, human, UniProt Q15599 150-230, looked up)
chain: RLCHLRKGPQGYGFNLHSDKSRPGQYIRSVDPGSPAARSGLRAQDRLIEVNGQNVEGLRHAEVVASIKAREDEARLLVVDP
notes: also called NHERF2_2; source: E. coli, PDZome V.2 library, high-throughput expression
Regarding B17, the “BI (holdup binding intensity)” value came out at 0.74.
